The source of these data is article PMC3068226 (Biochemistry, 2011).

In data set [1] the target is T1, BSA (Bos taurus, UniProt P02769).
The format of data set [2] is in vivo, mouse. Conditions: for change in kurtosis over time after injection: mouse ear, LS224 over 6 h, LS296 within 3 h.
Data set [3] addresses T1, BSA. The data set is described as follows: Binding to BSA by fluorescence quenching of albumin tryptophan. Conditions: double logarithmic plot (Eq. 6), less than 1 mol/mol dye to albumin.

T1 sequence (P02769 25-607): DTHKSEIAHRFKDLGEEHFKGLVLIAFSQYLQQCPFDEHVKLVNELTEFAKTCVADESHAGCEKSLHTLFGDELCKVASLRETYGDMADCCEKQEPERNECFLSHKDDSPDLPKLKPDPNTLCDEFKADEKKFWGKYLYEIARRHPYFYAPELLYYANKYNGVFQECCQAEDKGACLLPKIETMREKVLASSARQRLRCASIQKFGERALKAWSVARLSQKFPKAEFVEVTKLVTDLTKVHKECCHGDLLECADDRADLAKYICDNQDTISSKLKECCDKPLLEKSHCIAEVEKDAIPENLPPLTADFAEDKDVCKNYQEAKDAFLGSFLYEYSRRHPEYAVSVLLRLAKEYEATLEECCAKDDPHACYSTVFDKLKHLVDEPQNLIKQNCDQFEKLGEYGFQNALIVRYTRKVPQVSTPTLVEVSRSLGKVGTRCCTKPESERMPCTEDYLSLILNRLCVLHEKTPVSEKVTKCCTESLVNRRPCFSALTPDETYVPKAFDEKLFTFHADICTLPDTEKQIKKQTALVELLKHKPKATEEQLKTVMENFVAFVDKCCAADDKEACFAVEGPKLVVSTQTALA

For “LS276-DPhe-Cyclo(Cys-Tyr-DTrp-Lys-Thr- Cys)-Thr-OH (disulfide) [LS296]”, the “K, M^−1 (binding constants to BSA in PBS buffer)” value in the data set with BSA [1] was 14,880 M^−1. The “change in kurtosis over time after injection” value in data set [2] (ex/em 780/800 nm) was “dramatic changes”.

Consider `CC1(C)C(/C=C/C=C/C=C/C=C2\N(CCCCS(=O)(=O)O)c3ccc4ccccc4c3C2(C)C)=[N+](CCCCS(=O)(=O)[O-])c2ccc3ccccc3c21` [ICG, indocyanine green], for which the “number of binding sites n on albumin” value on BSA [3] is on record as 1.012 ± 0.0212.

For “Cypate-DPhe-Cyclo(Cys-Tyr-DTrp-Lys-Thr-Cys)-Thr-OH (disulfide) [LS224]”, in the data set with BSA [1], the “K, M^−1 (binding constants to BSA in PBS buffer)” value is listed as 51,000 M^−1. The “change in kurtosis over time after injection” value in data set [2] (ex/em 780/800 nm) was “no changes in kurtosis”.

`CC1(C)C(=CC=C2CCCC(C=CC3=[N+](CCCCCC(=O)[O-])c4ccc(S(=O)(=O)[O-])cc4C3(C)C)=C2Oc2ccc(S(=O)(=O)[O-])cc2)N(CCCCS(=O)(=O)[O-])c2ccc(S(=O)(=O)[O-])cc21.[Na+].[Na+].[Na+].[Na+]` [IRdye800CW, reference compound]: the “binding constant K to BSA” value at BSA [1] is ~6,100 M^−1. Also, in data set [2] (mouse ear ROI, 2 min after injection), the “initial kurtosis value at the first time point” value is given as “less than 1”. Further, in data set [2] (mouse ear ROI, intravenous injection, ex/em 780/800 nm), the “time of peak fluorescence intensity in ROI after injection” value lay in the range of 20 to 30 min.

On to “Cypate-Gly-Arg-Asp-Ser-Pro-Lys-OH [LS39]”, for which the “K, M^−1 (binding constants to BSA in PBS buffer)” value with BSA [1] was 76,000 M^−1.
